Test results: US20140134132A1

Tests used:
Assay in all cases: cell-based or functional assay
CYP3A4 = CYP3A4 (UniProt P08684)
[1] = biological target: organic anion transporting polypeptide 1B1 (UniProt Q9Y6L6)
[2] = biological target: multidrug resistance associated protein 2 (human) (UniProt Q92887)
multidrug resistance associated protein 2 (human), sequence (Q92887 whole entry): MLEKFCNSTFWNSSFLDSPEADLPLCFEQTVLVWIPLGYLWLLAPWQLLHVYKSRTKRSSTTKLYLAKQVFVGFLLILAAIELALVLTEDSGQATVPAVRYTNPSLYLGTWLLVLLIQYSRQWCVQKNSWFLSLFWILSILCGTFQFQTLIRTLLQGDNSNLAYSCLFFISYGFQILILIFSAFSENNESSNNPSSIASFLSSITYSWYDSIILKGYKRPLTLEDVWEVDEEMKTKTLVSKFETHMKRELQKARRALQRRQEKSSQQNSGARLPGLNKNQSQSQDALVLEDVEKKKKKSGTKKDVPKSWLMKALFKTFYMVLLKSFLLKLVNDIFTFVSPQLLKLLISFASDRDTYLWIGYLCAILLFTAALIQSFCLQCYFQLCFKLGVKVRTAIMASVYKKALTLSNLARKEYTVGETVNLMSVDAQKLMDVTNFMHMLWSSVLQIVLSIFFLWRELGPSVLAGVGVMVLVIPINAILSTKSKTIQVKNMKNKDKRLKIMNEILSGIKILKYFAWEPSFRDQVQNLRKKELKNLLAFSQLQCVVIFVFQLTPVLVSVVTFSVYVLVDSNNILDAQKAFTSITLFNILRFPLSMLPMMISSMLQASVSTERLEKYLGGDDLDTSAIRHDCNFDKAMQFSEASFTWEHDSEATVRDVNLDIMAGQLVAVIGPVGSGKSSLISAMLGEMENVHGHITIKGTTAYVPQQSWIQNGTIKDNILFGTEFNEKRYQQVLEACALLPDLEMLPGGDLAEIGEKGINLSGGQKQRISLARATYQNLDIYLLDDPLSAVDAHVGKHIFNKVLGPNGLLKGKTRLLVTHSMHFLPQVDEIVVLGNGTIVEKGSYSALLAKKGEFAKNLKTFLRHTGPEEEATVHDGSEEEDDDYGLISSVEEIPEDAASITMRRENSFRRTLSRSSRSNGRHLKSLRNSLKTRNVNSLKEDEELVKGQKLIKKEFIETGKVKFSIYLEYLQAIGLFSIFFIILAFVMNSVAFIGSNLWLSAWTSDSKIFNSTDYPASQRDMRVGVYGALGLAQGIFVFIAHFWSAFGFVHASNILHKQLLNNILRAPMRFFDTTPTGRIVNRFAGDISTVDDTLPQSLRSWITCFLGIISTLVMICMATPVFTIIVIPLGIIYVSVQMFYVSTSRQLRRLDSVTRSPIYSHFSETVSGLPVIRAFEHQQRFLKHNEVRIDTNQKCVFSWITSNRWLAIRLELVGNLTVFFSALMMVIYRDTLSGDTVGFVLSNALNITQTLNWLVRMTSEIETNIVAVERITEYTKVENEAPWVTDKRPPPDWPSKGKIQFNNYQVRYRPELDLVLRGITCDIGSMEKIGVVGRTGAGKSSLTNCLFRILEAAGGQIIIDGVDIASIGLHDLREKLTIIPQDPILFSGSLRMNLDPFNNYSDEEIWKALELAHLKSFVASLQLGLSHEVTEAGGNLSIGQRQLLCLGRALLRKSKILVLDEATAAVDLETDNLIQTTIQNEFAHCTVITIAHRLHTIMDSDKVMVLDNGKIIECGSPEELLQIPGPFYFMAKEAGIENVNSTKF

organic anion transporting polypeptide 1B1, sequence (Q9Y6L6 whole entry): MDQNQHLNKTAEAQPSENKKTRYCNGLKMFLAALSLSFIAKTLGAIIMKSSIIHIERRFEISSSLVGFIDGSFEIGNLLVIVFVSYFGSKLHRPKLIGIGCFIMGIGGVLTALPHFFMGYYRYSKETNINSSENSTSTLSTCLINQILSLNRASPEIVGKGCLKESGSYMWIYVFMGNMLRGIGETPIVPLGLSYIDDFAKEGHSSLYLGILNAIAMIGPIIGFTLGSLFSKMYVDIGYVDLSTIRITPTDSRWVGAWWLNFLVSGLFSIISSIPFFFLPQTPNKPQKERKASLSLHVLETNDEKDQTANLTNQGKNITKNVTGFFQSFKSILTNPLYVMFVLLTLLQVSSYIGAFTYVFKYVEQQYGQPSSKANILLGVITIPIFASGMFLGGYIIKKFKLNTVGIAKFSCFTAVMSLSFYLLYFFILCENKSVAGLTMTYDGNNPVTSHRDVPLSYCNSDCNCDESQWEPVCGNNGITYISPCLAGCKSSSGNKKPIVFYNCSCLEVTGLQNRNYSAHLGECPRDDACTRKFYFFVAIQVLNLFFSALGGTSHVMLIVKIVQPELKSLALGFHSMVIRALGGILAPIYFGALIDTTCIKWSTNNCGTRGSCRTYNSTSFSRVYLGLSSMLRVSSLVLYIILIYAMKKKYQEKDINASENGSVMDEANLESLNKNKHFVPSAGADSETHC
CYP3A4, sequence (P08684 whole entry): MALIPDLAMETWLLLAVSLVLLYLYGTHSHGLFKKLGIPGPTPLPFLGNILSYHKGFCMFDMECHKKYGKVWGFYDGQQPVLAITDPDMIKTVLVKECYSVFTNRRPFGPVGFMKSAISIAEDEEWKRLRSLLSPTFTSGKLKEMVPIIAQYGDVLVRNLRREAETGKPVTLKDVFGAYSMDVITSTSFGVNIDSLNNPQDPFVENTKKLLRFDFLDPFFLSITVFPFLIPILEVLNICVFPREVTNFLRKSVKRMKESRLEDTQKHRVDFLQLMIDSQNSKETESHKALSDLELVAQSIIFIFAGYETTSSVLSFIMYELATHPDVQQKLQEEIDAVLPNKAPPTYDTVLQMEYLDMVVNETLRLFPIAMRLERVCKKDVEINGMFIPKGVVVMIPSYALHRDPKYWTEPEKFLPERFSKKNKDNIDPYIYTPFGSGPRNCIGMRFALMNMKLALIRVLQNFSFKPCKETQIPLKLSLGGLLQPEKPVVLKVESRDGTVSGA

Row | Substance | NIM TDI kinact/Ki (CYP3A4) | OATP1B13 IC50 [1] | MRP2 IC50 [2]
1 | 3-[D-Ala]-4-[(2S,3R)-3-methyl-2-(methylamino)-6-morpholinohexanoyl]-cyclosporin (peptide) | 0.001 | 6.9 µM | 
2 | 3-[D-Ala]-4-[(2S,3S)-3-methyl-2-(methylamino)-4-((4-methylpiperazine-1-carbonyl)oxy)butanoyl]-cyclosporin (peptide) |  | 6.7 µM | 21 µM
3 | 3-[D-Ala]-4-[(2S,3S)-4-(2-(1,1-dioxidothiomorpholino)ethoxy)-3-methyl-2-(methylamino)butanoyl]-cyclosporin (peptide) |  | 3 µM | 28 µM
4 | 3-[D-Ala]-4-[(2S,3S)-4-(((S)-4-ethylmorpholin-2-yl)methoxy)-3-methyl-2-(methylamino)butanoyl]-cyclosporin (peptide) | 0.0004 | 1.9 µM | 
5 | 3-[D-Ala]-4-[(2S,3S)-4-methoxy-3-methyl-2-(methylamino)butanoyl]-cyclosporin (peptide) |  | 5.1 µM | 14 µM

Further lines, results first:

Row | NIM TDI kinact/Ki (CYP3A4) | OATP1B13 IC50 [1] | MRP2 IC50 [2] | Substance
6 | 5 M⁻¹ s⁻¹ | 1.9 µM | 15 µM | 3-[D-Ala]-4-[(2S,3R)-4-methoxy-3-methyl-2-(methylamino)butanoyl]-cyclosporin (peptide)
7 |  | 1.4 µM | 9 µM | 3-[D-Ala]-4-[(2S,3S)-3-methyl-2-(methylamino)-4-(methylsulfonyl)butanoyl]-cyclosporin (peptide)
8 | 0.0007 | 3.5 µM |  | 3-[D-Ala]-4-[(2S,3S)-4-(2-(4-cyclobutylpiperazin-1-yl)ethoxy)-3-methyl-2-(methylamino)butanoyl]-cyclosporin (peptide)
9 | 0.0015 | 1.8 µM |  | 3-[D-Ala]-4-[(2S,3S)-4-(2-hydroxy-2-methylpropoxy)-3-methyl-2-(methylamino)butanoyl]-cyclosporin (peptide)
